For test [1], the target named is fusion protein containing the A3B3 domain of CEA (UniProt P06731). In words: competitive ELISA against HRP-conjugated hMN-14 IgG on the A3B3 fusion protein.
The next test has as its target CEA (UniProt P06731). In words: SE-HPLC of 125I-TF2 mixed with a 20-fold molar excess of CEA.
Test [2] deals with N-DDD1-Fab-hMN-14 (human). The test can be described thus: equilibrium SE-HPLC.
Test [3] concerns the target C-DDD1-Fab-hMN-14 (human). In words: equilibrium SE-HPLC.
In test [4] the target is recombinant human RIIα (human) (UniProt P13861). The test can be described thus: equilibrium SE-HPLC.
The target of test [5] is C-DDD1-Fab-hMN-14 (human). In words: SE-HPLC of the mixture with hMN14-Fab-DDD1; h679-Fab-AD2 not reduced.
For test [6], the target named is C-DDD1-Fab-hMN-14 (human). The test can be described thus: SE-HPLC of the mixture with hMN14-Fab-DDD1; h679-Fab-AD2 reduced with TCEP.

The values below come from patent EP1959993B1.

UniProt P13861, sequence (P13861 whole entry): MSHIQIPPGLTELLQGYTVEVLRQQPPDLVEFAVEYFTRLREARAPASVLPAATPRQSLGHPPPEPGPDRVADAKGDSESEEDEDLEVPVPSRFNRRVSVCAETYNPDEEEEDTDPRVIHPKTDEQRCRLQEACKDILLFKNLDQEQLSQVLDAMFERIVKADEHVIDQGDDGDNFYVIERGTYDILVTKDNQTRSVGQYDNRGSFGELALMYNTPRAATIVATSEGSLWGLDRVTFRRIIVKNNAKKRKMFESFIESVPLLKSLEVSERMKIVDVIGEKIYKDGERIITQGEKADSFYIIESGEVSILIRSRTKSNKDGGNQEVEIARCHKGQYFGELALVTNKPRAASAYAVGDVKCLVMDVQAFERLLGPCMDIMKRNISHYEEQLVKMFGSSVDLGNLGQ

The substance TF2 (bispecific antibody) registered an avidity, fold against TF1 in test [1] of 2 fold. In the test with CEA, the percent shifted to a high molecular weight species amounted to 95%.

Usually Kd stands for the concentration at which binding is half-saturated. Take h679-Fab-AD1: the Kd in test [2] turned out to be 8 nM; in test [3] it was 15 nM; in test [4], 30 nM.

Turning to h679-Fab-AD2, the fraction reactive in test [5] was found to be 0.33. For the same substance, the percent activity in test [6] was found to be 100%.
